Reference: patent publication US8846363B2, “Compositions of and methods of using sulfatases from Flavobacterium heparinum” (priority 2007, dated 2014)

How the values were obtained:
[1] = Coupled N-sulfamidase/α-glucosidase fluorimetric plate assay (reaction conditions, steady-state kinetics); assay type: biochemical
Description: (§1) Indirect measurement of enzyme activity was also made using a fluorimetrically-based plate assay in which the prerequisite desulfation of the appropriate glucopyranoside 1→4 methlybelliferone substrate by either the 6-O-sulfatase or N-sulfamidase was coupled to the glucosidase-mediated hydrolysis of the stereo-specific 1→4 glycosidic linkage between the pyranose ring and the adjoining fluorophore. Release of the free fluorophore (4-MU) was monitored spectroscopically as described above for the arylsulfatase assay using 4-MU sulfate. The two sulfatase assays differed in the choice of substrate in accordance to their specificity as well as the glucosidase added during the second, […] step. For the 6-O-sulfatase, the hydrolysis of the substrate 4-MU-β-D-GlcNAc,6S at the 6-OH position was coupled to β-glucosidase purified from sweet almonds (MP Biomedicals, Solon, Ohio, Catalog No. 195197). Likewise, N-sulfamidase hydrolysis of 4-MU-α-D-GlcNS at the 2-amino position was coupled to α-glucosidase (MP Biomedicals, Catalog No. 153487). […] The presumption of the first (sulfatase) activity being the rate-limiting step was established experimentally. Reaction conditions were optimized to satisfy three related criteria: 1) linear readout of fluorescent signal which is directly proportional to sulfatase activity; 2) quantitative release of 4-MU by glucosidase activity under every biochemical condition examined and; 3) negligible fluorescent quenching of the free chromophore.
Coupled N-sulfamidase assay was generally described for the 6-O-sulfatase, but with the following modifications: 4-MU-GlcNS as substrate, 50 mM sodium acetate at pH 6.0 (instead of 5.5) and 1 μM enzyme. For the second enzyme step, 5 units of α-glucosidase were added. Enzyme incubation was carried out for 22 hours at 37° C. The obvious difference in enzyme efficacies between α-glucosidase versus β-glucosidase is reflected in the substantially longer incubation times required for the α-glucosidase to quantitatively hydrolyze the glycosidic α1→4 linkage between the fluorophore and the desulfated glucosamine. […]

[2] = substrate: CC(=O)N[C@H]1[C@H](Oc2ccc3c(C)cc(=O)oc3c2)O[C@H](COS(=O)(=O)O)[C@@H](O)[C@@H]1O; assay: Steady-state kinetics, coupled 6-O-sulfatase/β-glucosidase fluorimetric assay with 4-MU-GlcNAc,6S; assay type: biochemical, Flavobacterium heparinum (Pedobacter heparinus)
Description: Recombinant protein expression in the E. coli strain BL21(DE3) and one-step affinity purification by nickel chelation chromatography were as described for 2-O-sulfatase (Myette et al., 2003 J Biol Chem 278, 12157-12166). The prediction of NH2-terminal signal sequences and putative cleavage sites for the two respective proteins was made by the Von Heijne computational method (Nielsen et al., 1997 Protein Eng 10, 1-6.). Engineering and expression of these truncated proteins (minus signal sequences) were as described above for the full-length genes with the exception of substituting the 5′ primers which were used in the original PCR amplification step. These internal primers included 5′ TCTAGACATATGTCTTGCCAGCAGCCTAAAC 3′ (for ORF B; SEQ ID NO: 15) and 5′ TCTAGACATATGTCCTGCACTTCGCCGGAA 3′ (for ORF C; SEQ ID NO: 16), with the Nde 1 site underlined. As such, the ORF B gene sequence begins at Met 18 (FIG. 1). Likewise, the ORF C gene sequence begins at Ser 21 (FIG. 2). Removal of the 6×His tag was achieved by site-specific protease cleavage using the thrombin cleavage capture kit (Novagen, San Diego, Calif.). Proteolysis conditions were generally as described for other recombinantly expressed flavobacterial heparin degrading enzymes. Following concentrating the enzymes by ultrafiltration, cleaved proteins were dialyzed overnight against 4 liters of 50 mM Tris, pH 7.5 and 0.1 M NaCl, 4° C., using a 3 mL slide-a-lyzer cassette with a 10,000 molecular weight cutoff (MWCO) (Pierce Chemical, Rockland, Ill.).
Coupled Enzyme Assay for the Determination of Biochemical Reaction Conditions and Steady-State Kinetics
as §1
For the 6-O-sulfatase/β-glucosidase assay, the standard reaction conditions included 2 μM recombinant enzyme, 50 mM sodium acetate buffer, pH 5.5, and 5 mM CaCl2 in a 20 μl reaction volume. 4-MU-GlcNAc,6S substrate concentration was varied from 0.1-2 mM. 2 μL of enzyme were added to each well of a microtiter plate (prechilled on ice), plate gently vortexed, and contents of each well spun down for 1 minute at 500×g, 4° C. The assay was initiated by transferring the 96 well plate to a heating block prequilibrated at 30° C. Sulfatase incubation (first enzyme) was carried out at 30° C. for 20 minutes, after which enzyme activity was inactivated by heat denaturation (95° C., 10 minutes). In the second enzyme (glucosidase) step, the microtiter plate was once again chilled on ice. […]

[3] = other: Addition: 0.5 mM Ca^+2, pH 5.5, 30° C.
[4] = other: Addition: 5 mM Ca^+2, pH 5.5, 30° C.
[5] = other: Addition: none, pH 5.5, 30° C.

calcium requirement for activity [1] | effect of Mg^+2 or Mn^+2 on activity ([1]; 1 mM or 5 mM divalent metal) | Molecule | activity remaining relative to the zero NaCl control ([1]; 1 M NaCl) | Km [2, 3] [µM] | kcat [2, 3] [s⁻¹] | Km [2, 4] [µM] | kcat [2, 4] [s⁻¹] | Km [2, 5] [µM] | kcat [2, 5] [s⁻¹]
required calcium for activity | only negligible effects | Flavobacterium heparinum N-sulfamidase (ORF C), recombinant, NH2-terminal truncation lacking signal sequence, SEQ ID NO: 4 (Pedobacter heparinus DSM 2366) (protein, E. coli BL21(DE3), N-terminal 6xHis removed by thrombin) SCTSPEKKTDRPNILMIMSDNQSWNHVGSYGDQTVRTPNMDRIAKEGVRFTNAFCSSPSCTPARAGMLTGQDIWRLEDGGNLWGVLPVKYKVYPDLLEEAGYAIGFQGKGWGPGSFEANKRPRNPAGNEFKSFGAFLKDKKEGPWCYWISSHEPHRPYVEGSGEKAGIDPNKVKVPAYLPDHISIRKDIADYYAAVETFDRELGEALDQLKASGELDNTVIVVCSDNGWQMPRGLANLYDFGTHVPLIISWPGKFKQDVVADNLVTLNDLAPTFLQLGKVPVPADMTGKSLLPIVEAGKKDEKPRDYVVLGRERHAFVRRHGLGYPGRAIRTKDYLYIKNYEPNRWPAGDPPFYGDIDPYMFNWPGETKYYLIEHKDDPKVKSFFELGMGKRPAEELFDINKDPDELHNLAALPEYQKIKQELVAKLRNYLVATKDPRETNGNIQIWDTAAYFSEIDKTPKPSKEMQKRFKLDSSYNYLK | less than 20% | – | – | – | – | – | –
– | – | Flavobacterium heparinum 6-O-sulfatase (ORF B), recombinant, NH2-terminal truncation lacking signal sequence, SEQ ID NO: 2 (Pedobacter heparinus DSM 2366) (protein, E. coli BL21(DE3), N-terminal 6xHis removed by thrombin) TLMSCQQPKPAESAKRPNIVFIMTDDHTIQAISAYGSKLVKTPNLDRIANEGMLFNNCFVTNAVCGPSRATILTGKYSHLNGLTDNSKVFDSTQVIYPQLLKKAGYQTAMIGKWHLGSTPMGFDYYSILPNQGQYYQPEFIENGHLVKEKGYVTDLITDKAIGFLEKRDHDKPFLMIYQHKAPHRNWLPAPRHLGMFDDTVFPEPANLLDDFKGRGRAAKEQLMNISTDMWPAWDLKMLSTAQLDSMAKLPVSPKFKDAKGDDYQQANDPSLDKARFFEVYNRMTDAEKVQWRKVYDKRVAEFKRLNPKGADLVRWKYQQYMRDYLACVVSVDENVGRLMDYLKKIGELDNTIIVYTSDQGFYLGEHGYFDKRFMYDESFRTPLMVRYPPSVKAGSVSNAFAMNLDFAPTLLDYAGVKIPADMQGLSLRPVLDNAGKSPENWRKAVYYHYYEFPSWHMVKRHYGIRTERYKLIHFYNDIDEWELYDMQKDPHEMQNLYNDKAYEPIIKDLKVQMKKLQVQYKDTNPTEAL | – | 217 | 0.055 | 327 | 0.113 | 146 | 0.0417
